Key:
[1] = molecular target: T1, AK072874 B3-domain fragment, MBP fusion (Oryza sativa, UniProt Q7XKC5 Q7XKC5:151-433); experiment: EMSA; specific binding; conditions: tags: MBP (pMAL-c2); label: labeled (EMSA probe)
T1 sequence: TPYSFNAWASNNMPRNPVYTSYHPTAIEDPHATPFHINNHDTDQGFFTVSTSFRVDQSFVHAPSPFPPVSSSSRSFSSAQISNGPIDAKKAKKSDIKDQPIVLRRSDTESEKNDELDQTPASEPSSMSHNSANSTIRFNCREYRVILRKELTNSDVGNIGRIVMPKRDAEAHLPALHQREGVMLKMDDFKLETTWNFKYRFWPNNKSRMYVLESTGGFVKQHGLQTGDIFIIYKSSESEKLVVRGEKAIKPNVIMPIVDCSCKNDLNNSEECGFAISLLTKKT
Method: (§1) Next, the following operation was carried out for gel shift assay. First, partial ORFs containing a B3 DNA-binding domains of the respective candidate proteins were obtained by use of the following primers: a primer including the sequences shown in, respectively, SEQ ID NOS: 52 (forward) and 53 (reverse), for the 501st-726th amino acids of OsVP1; a primer including the sequences shown in, respectively, SEQ ID NOS: 54 (forward) and 55 (reverse), for the 141st-362nd amino acids of AK107456; a primer including the sequences shown in, respectively, SEQ ID NOS: 56 (forward) and 57 (reverse), for the 151st-433rd amino acids of AK072874; a primer including the sequences shown in, respectively, SEQ ID NOS: 58 (forward) and 59 (reverse), for the 1st-289th amino acids of AK109920; and a primer including the sequences shown in, respectively, SEQ ID NOS: 60 (forward) and 61 (reverse), for the 287th-672nd amino acids of AK101356. Then, each of the partial ORFs was inserted into pMAL-c2 (New England Biolabs) so as to be fused in frame to a maltose-binding protein (MBP) gene. By using a plasmid thus obtained, a fused protein of each of the candidate proteins and the MBP was produced in accordance with manufacturer's instructions. […]

[2] = molecular target: T2, IDEF1 (AK107456) B3-domain fragment, MBP fusion (Oryza sativa, UniProt Q6Z1Z3 SEQ:141-362); experiment: EMSA; specific binding; conditions: tags: MBP (pMAL-c2); label: labeled (EMSA probe)
T2 chain: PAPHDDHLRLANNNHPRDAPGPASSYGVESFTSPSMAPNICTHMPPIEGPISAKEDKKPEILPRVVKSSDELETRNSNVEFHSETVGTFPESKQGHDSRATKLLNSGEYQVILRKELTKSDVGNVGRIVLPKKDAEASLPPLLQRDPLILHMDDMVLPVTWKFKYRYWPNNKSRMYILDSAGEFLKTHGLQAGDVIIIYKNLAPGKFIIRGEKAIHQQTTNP
Method: as §1

[3] = molecular target: T3, OsVP1 B3-domain fragment, MBP fusion (Oryza sativa, UniProt P37398 P37398:501-726); experiment: EMSA; no specific binding; conditions: tags: MBP (pMAL-c2); label: labeled (EMSA probe)
T3 sequence: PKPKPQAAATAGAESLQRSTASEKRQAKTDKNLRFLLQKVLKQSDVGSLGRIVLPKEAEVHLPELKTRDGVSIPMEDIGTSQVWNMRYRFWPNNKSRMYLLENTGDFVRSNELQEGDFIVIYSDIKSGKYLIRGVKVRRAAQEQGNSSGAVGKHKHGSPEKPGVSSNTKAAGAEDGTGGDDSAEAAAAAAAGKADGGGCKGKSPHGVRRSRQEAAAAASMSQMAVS
Method: as §1

[4] = molecular target: T1, AK072874 B3-domain fragment, MBP fusion; experiment: competition; 30-fold excess mutated IDE1 competitors; CATGC specifically recognized; conditions: tags: MBP (pMAL-c2)
Method: as §1

[5] = molecular target: T2, IDEF1 (AK107456) B3-domain fragment, …; experiment: as above; conditions: tags: MBP (pMAL-c2)
Method: as §1

[6] = molecular target: T4, IDEF2 NAC domain, MBP fusion (Oryza sativa); experiment: EMSA; 500 ng fusion protein; competition with 30- or 50-fold excess mutants shows CA[A/C]G(TTT) recognized; conditions: tags: MBP (pMAL-c2); label: labeled
T4 chain: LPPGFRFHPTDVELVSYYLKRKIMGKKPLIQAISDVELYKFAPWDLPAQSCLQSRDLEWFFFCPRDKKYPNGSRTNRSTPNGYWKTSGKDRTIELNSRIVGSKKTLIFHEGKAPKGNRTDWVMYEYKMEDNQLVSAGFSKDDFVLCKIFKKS
Method: Then, specific binding of IDEF2 to IDE2 was confirmed by the EMSA method. An IDEF2 NAC domain amplified by a primer including the base sequences shown in, respectively, SEQ ID NOS: 64 and 65, was cloned to a pMAL-c2 vector, and was used to produce an IDEF2-MBP fused protein. Then, a labeled […] including the base sequence (SEQ ID NO: 41) including IDE2 was incubated with 500 ng of the IDEF2-MBP fused protein.
Next, competition experiments were carried out by addition of 30-fold or 50-fold excess unlabeled competitors. FIG. 10 and (a) of FIG. 12 show mutations introduced into polynucleotide fragments, which were used as the competitors. The IDE2 probe was incubated with the 30-fold or 50-fold excess unlabeled competitors and 500 ng of the IDEF2-MBP fused protein. FIG. 10 and (b) of FIG. 12 show the result of the competition experiments. As shown in FIG. 10 and (b) of FIG. 12, IDEF2 predominantly recognized a CA[A/C]G(TTT) sequence (SEQ ID NO: 33 or 34) within IDE2.

B1: IDE2-IDE1x2 (tandemly duplicated IDE1 probe) (dsDNA)
DNA 1: AAGCTTGAATTCGATATCTTGAACGGCAAGTTTCACGCTGTCACTATCAAGCATGCTTCTTGCTTGAACGGCAAGTTTCACGCTGTCACTATCAAGCATGCTTCTTGCACGCGTCTCGAGTCGCGAATCG
DNA 2: CGATTCGCGACTCGAGACGCGTGCAAGAAGCATGCTTGATAGTGACAGCGTGAAACTTGCCGTTCAAGCAAGAAGCATGCTTGATAGTGACAGCGTGAAACTTGCCGTTCAAGATATCGAATTCAAGCTT
binding result [1]: binds | binding result [2]: binds | binding result [3]: no binding

B2: IDE1 (dsDNA)
DNA 1: ATCAAGCATGCTTCTTGC
DNA 2: GCAAGAAGCATGCTTGAT
binding result [4]: binds | binding result [5]: binds

B3: IDE2 EMSA probe (dsDNA)
DNA 1: GAGAGTGGGTTGAACGGCAAGTTTCACGCTGTCACTATCGTCCTCG
DNA 2: CGAGGACGATAGTGACAGCGTGAAACTTGCCGTTCAACCCACTCTC
binding result [6]: binds

— patent US20110138496, “POLYPEPTIDE FOR IMPROVING TOLERANCE TO IRON DEFICIENCY IN PLANTS, AND USE THEREOF” (published 2011)
